Measurements published in patent US20130115589A1, “Pharmaceutical Composition for Treatment and Prevention of Herpes Virus Infections” (THE UNIVERSITY OF TOKYO, priority 2010, published 2013).

Target: gB of HSV-1 (Human herpesvirus 1, UniProt P06436)
Settings: 293T cells

B1: NMHC-IIBrod-Ig: fusion protein of Ig and the C-terminal fragment of NMHC-IIB, soluble form of NMHC-IIB (protein)
chain: FAQSKESEKKLKSLEAEILQLQEELASSERARRHAEQERDELADEITNSASGKSALLDEKRRLEARIAQLEEELEEEQSNMELLNDRFRKTTLQVDTLNAELAAERSAAQKSDNARQQLERQNKELKAKLQELEGAVKSKFKATISALEAKIGQLEEQLEQEAKERAAANKLVRRTEKKLKEIFMQVEDERRHADQYKEQMEKANARMKQLKRQLEEAEEEATRANASRRKLQRELDDATEANEGLSREVSTLKNRLRRGGPISFSSSRSGRRQLHLEGASLELSDDDTESKTSDVNETQPPQSE
modifications: left off: a dimerising Fc or GST; small tags and cut ends
- staining of cells expressing gB on their surface: stained
